The source of these data is paper PMC6831827, “Structural characterization of the RH1-LZI tandem of JIP3/4 highlights RH1 domains as a cytoskeletal motor-binding motif” (Scientific Reports, 2019).

Data set [1] addresses RILPL2 RH1-cc (Homo sapiens) (UniProt Q969X0). Briefly: ITC. To be noted: cited from earlier work.
Data set [2] deals with T1, human myosin 5a globular tail domain (GTD; residues 1463-1855) (human, UniProt Q9Y4I1 1463-1855).
T1 construct: myosin 5a (myo5a), human, globular tail domain, residues 1463-1855; pProEx HTB vector with N-terminal 6x Histidine tag and a rTEV cleavage site; the methods describe no cleavage step; also called myo5a-GTD; myo5A-GTD; source: E. coli Rosetta, purified (His-Trap, Superdex 75 gel filtration)
T1 sequence (Q9Y4I1 1463-1855): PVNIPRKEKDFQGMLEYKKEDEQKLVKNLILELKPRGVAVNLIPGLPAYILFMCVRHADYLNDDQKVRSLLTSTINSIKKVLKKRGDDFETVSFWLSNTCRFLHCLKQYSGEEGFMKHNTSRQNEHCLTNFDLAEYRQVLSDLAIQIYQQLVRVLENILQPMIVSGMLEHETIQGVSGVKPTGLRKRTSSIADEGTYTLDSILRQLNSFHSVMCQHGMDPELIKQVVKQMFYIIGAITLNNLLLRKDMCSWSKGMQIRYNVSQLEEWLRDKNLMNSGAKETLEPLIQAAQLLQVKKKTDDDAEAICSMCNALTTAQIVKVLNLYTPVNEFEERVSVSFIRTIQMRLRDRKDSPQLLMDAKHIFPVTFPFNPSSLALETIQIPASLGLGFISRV
Nature of the data set: MST; 25 nM Blue-NHS-labelled JIP3 fragment, myo5a-GTD titrated (16 1:1 dilutions); 20 mM hepes pH 7.5, 150 mM NaCl, 2 mM MgCl2, 0.5 mM TCEP, 0.05% tween; 25 °C; three independent replicates. To be noted: both partners purified.

Data set [3] concerns the molecule itself. Nature of the data set: SEC-MALS; Superdex 200 10/300 GL increase, 20 mM Hepes pH 7.5, 200 mM NaCl, 0.5 ml/min; oligomeric state of the fragment.
Data set [4] concerns the molecule itself. Nature of the data set: AUC; sedimentation velocity with fluorescence detection (SV-FDS), 20 °C, 50,000 rpm; dilution series of Blue-NHS-labelled fragment (RH1-LZI 460 nM to 1.1 nM; LZI 770 nM to 2.4 nM; above 60 nM mixed with unlabelled protein); dimer to monomers.
The target in data set [5] is T1, human myosin 5a globular tail domain …. Briefly: AUC; sedimentation velocity, absorbance at 280 nm, 20 °C, 42000 rpm; 20 mM Hepes pH 7.5, 150 mM NaCl, 2 mM MgCl2, 1 mM TCEP; mixtures 22.5 uM JIP3-RH1-LZI + 7.5 uM myo5a-GTD and 7.5 uM JIP3-RH1-LZI + 22.5 uM myo5a-GTD. To be noted: both partners purified.

Bounds are passed on as bounds.

Chain of RILPL2 RH1-cc (Homo sapiens) (Q969X0 1-97): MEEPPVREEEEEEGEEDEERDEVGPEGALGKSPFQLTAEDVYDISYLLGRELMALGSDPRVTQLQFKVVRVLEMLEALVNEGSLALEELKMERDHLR

On to myosin Va GTD (from UniProt Q9Y4I1), for which the Kd (in general, the concentration at which binding is half-saturated) in data set [1] was 0.3 µM.

B1: RH1-lz3 fragment of JIP3 (residues 22-100) (domain or fragment, mouse, UniProt Q9ESN9-1 22-100, looked up)
chain: GSVMSERVSGLAGSIYREFERLIHCYDEEVVKELMPLVVNVLENLDSVLSENQEHEVELELLREDNEQLLTQYEREKAL
modifications: labelled with Protein Labeling Kit Blue-NHS in the MST experiment only
notes: cloned, expressed and purified similarly as the other JIP3 fragments, which are of mouse JIP3 NP_038959.2; also called JIP3-RH1-lz3; JIP3-RH1-Lz3; source: E. coli Rosetta, purified similarly as the other JIP3/4 fragments; not shown: His-thioredoxin, N-terminal, cleaved
As to B1, the Kd in data set [2] came to 2.2 ± 0.5 µM. Moreover, in data set [3], the stoichiometry N (usually a count of units in the complex or per binding partner) is 2.

B2: RH1-LZI fragment of JIP3 (residues 22-187) (domain or fragment, mouse)
chain: GSHGSVMSERVSGLAGSIYREFERLIHCYDEEVVKELMPLVVNVLENLDSVLSENQEHEVELELLREDNEQLLTQYEREKALRKQAEEKFIEFEDALEQEKKELQIQVEHYEFQTRQLELKAKNYADQISRLEERESEMKKEYNALHQRHTEMIQTYVEHIERSKMQQV
modifications: labelled with Monolith NT.115 Protein Labelling Kit BLUE NHS in the SV-FDS experiments only
notes: Gly-Ser-His residues remaining after the thrombin cleavage; The construct is mouse JIP3; Results and modelling speak of human JIP3 (NP_055948.2); also called JIP3-RH1-LZI; RH1-LZI tandem of JIP3; not shown: His-thioredoxin, N-terminal, cleaved
For the molecule B2, in data set [4], the Kd is less than 0.001 µM. The “stoichiometry N” value in data set [3] turned out to be 2. The binding result in data set [5] was “binds”.

B3: LZI fragment of JIP3 (residues 71-187) (domain or fragment, mouse, UniProt Q9ESN9-1 71-187, looked up)
chain: SENQEHEVELELLREDNEQLLTQYEREKALRKQAEEKFIEFEDALEQEKKELQIQVEHYEFQTRQLELKAKNYADQISRLEERESEMKKEYNALHQRHTEMIQTYVEHIERSKMQQV
modifications: labelled with Monolith NT.115 Protein Labelling Kit BLUE NHS in the SV-FDS experiments only
notes: also called JIP3-LZI; LZ1 fragment; not shown: His-thioredoxin, N-terminal, cleaved
Molecule B3 had a Kd in data set [4] of 0.11 µM. The “stoichiometry N” value in data set [3] is 2.
